The source of these data is US20250009852A1, “DEPLETING EGFR AND HER2 OVERCOMES RESISTANCE TO EGFR INHIBITORS IN COLORECTAL CANCER” (Health Research, Inc., priority 2021, published 2025).

In one experiment the test system is EGFR and HER2. Briefly: Western blotting of tumor homogenates: EGFR and HER2. The class given is in vivo, mouse. The note with it: 24 h after the final dose. As to the method: To prepare whole cell lysates, cells were washed with PBS twice, mixed with 1× cell lysis buffer from Cell Signaling Technology supplemented with 2 mM PMSF and a protease inhibitor cocktail from Roche Applied Science, placed on ice for 10 min, sonicated at 0-4° C. to enhance cell lysis using a Branson Model 450 sonifier, and finally centrifuged at 13,000 g for 10 min at 4° C., and the supernatant fraction is collected as whole cell lysate. […]
Protein concentrations in all samples were measured using the BCA Assay Kit. […] Proteins were transferred to polyvinylidene fluoride membrane, probed with specific antibodies, and detected using either Luminata Classico (Millipore) or Luminata Cresendo (Millipore). […] The beads were washed three times with IP buffer, suspended in 2× SDS loading buffer, boiled for 5 min, and analyzed by Western blotting.
SCID mice (C.B.17 SCID) were bred by the Laboratory Animal Shared Resource at Roswell Park Comprehensive Cancer Center. […] Subcutaneous tumor volume was measured using length ×width^2÷2. Tumor volume was measured three times each week. Orthotopic tumor growth was monitored by bioluminescence weekly. Mice were given D-luciferin (150 mg/kg) by ip and anesthetized with isoflurane, and tumor burden was measured by bioluminescence using the IVIS Spectrum In Vivo Imaging System (PerkinElmer). Drug treatment was started when significant tumor growth was detected. […]

For another experiment, the system named is RAS. Kind of experiment: RAS activity assay (Ras Activation ELISA) in cell lysates. Format: cell-based, human. The note with it: 25 nM, 48 h. On the procedure:
Ras activity in cell lysates was measured using a Ras Activation ELISA Kit from Cell Biolabs. Briefly, approximately 5×10^6 cells were mixed with 0.5 ml lysis buffer. Cell lysates were cleared by centrifugation at 14,000 g for 10 min at 4° C., and 250 μl per sample was mixed with 10 μl of 0.5 M EDTA with or without 5 μl of either 100× GTPγS or 100× GDP, which was incubated at 37° C. for 30 min with agitation and then mixed with 33 μl of 1 M MgCl2. The mixture after appropriate dilution was transferred at 100 μl per sample to a well in a 96-well plate immobilized with RAF-1 RAS-binding domain and incubated for 1 h at RT. After washing the wells 5 times with wash buffer, 100 μl of an anti-pan-RAS antibody was added to each well and incubated for 1 h at RT. After another round of wash, 100 μl of a secondary antibody-HRP conjugate was added to each well and incubated for 1 h at RT. After yet another round of wash, 100 μl of substrate solution was added to each well and incubated at RT for 20 min, followed by addition of 100 μl of stop solution to each well. Absorbance at 450 nm in each well was recorded by a Synergy 2 Multi-Mode Microplate Reader.

B1: PEPD^G278D: recombinant and enzymatically inactive mutant of human peptidase D (PEPD), with replacement of glycine 278 by aspartic acid (protein)
chain: AAATGPSFWLGNETLKVPLALFALNRQRLCERLRKNPAVQAGSIVVLQGGEETQRYCTDTGVLFLQESFFHWAFGVTEPGCYGVIDVDTGKSTLFVPRLPASHATWMGKIHSKEHFKEKYAVDDVQYVDEIASVLTSQKPSVLLTLRGVNTDSGSVCREASFDGISKFEVNNTILHPEIVESRVFKTDMELEVLRYTNKISSEAHREVMKAVKVGMKEYGLESLFEHYCYSRGGMRHSSYTCICGSGENSAVLHYGHAGAPNDRTIQNGDMCLFDMDGEYYSVASDITCSFPRNGKFTADQKAVYEAVLLSSRAVMGAMKPGDWWPDIDRLADRIHLEELAHMGILSGSVDAMVQAHLGAVFMPHGLGHFLGIDVHDVGGYPEGVERIDEPGLRSLRTARHLQPGMVLTVEPGIYFIDHLLDEALADPARASFLNREVLQRFRGFGGVRIEEDVVVIDSGIELLTCVPRTVEEIEACMAGCDKAFTPFSGPK
modifications: left off: small tags and cut ends
With B1, in the experiment with EGFR and HER2 (HCT116 and HT29 tumors), the “effect on EGFR, HER2 and ERK in tumors” value is listed as “neither PEPD^G278D nor cetuximab had any effect”. Further, in the experiment with EGFR and HER2 (SW48 tumors), the “expression and phosphorylation of EGFR and HER2 in tumors” value is “decreased the expression and phosphorylation of both EGFR and HER2”. For the same molecule, the figures for the “inhibition of RAS activity” value in the experiment with RAS (HCT116 cells), in the experiment with RAS (HT29 cells) and in the experiment on RAS (SW48 cells) were 73%, 75% and 75%, respectively.
